The text below walks through data of paper PMC4085576.

The target of this experiment is microtubules (X-rhodamine labeled, biotin-linked to the surface). Nature of the experiment: TIRF microscopy of GFP-tagged protein on immobilised microtubules.

B1: KIF7_(560)-GFP, N-terminal motor domain and first coiled-coil of KIF7 with a C-terminal GFP tag (domain or fragment)
chain: MGLEAQRLPGAEEAPVRVALRVRPLLPKELLHGHQSCLRVEPERGRITLGRDRHFGFHVVLGEDTGQEAVYQACVQPLLEAFFEGFNATVFAYGQTGSGKTYTMGEASVASLHEDEQGIIPRAMAEAFKLIDENDLLDCLVHVSYLELYKEEFRDLLEVGTASRDIQLREDDRGNVVLCGVKEVDVEGLDEVLSLLEMGNAARHTGATHFNRLSSRSHTVFTVTLEQRGRTPSRLPRPAAGHLLVSKFHFVDLAGSERVLKTGSTGERLKESIQINSTLLALGNVISALGDPQRRGSHIPYRDSKITRILKDSLGGNAKTVMIACVSPSSSDFDETLNTLNYASRAQNIRNRATVNWHPEAERVPEEQAAGARGPPRHRSETRIIHRGRRVPCPAVGSAAVAAGLGAECARCRARTSAAYSLLRELQAEPGLPGAAARKVRDWLCAVEGERSTLSSASGPDSGIESAPAEDQAAQGTSGRKGDEGTQQLLTLQSQVARLEEENRDFLAALEDAMEQYKLQSDRLREQQEEMVELRLRLELAQPGWGAPGLLQGLPPGSFV
The molecule B1 returned a fold increase in filament-bound KIF7 with 2 mM AMP-PNP against 1 mM MgATP of 2 fold.
